The results in this text go back to patent US9994628B2, “Peptides and combination of peptides for use in immunotherapy against various tumors” (IMMATICS BIOTECHNOLOGIES GMBH, priority 2015, dated 2018).

The target of the experiment is HLA-A*02:01 (Homo sapiens, UniProt P04439, D140Y/D185E/D98H/E176V/E277Q/G131W/G231S/I119V/I121R/I166T/I218V/L300P/L318F/N151K/N90K/P208A/P217A/Q86G/Q94H/R138H/R169H/T345S). Nature of the experiment: MHC binding assay: UV-ligand exchange and β2m ELISA (peptide exchange yield, Table 7). The following applies: binding of HLA-class I restricted peptides to HLA-A*02:01, UV-ligand exchange. An excerpt:
Candidate peptides for T cell based therapies according to the present invention were further tested for their MHC binding capacity (affinity). The individual peptide-MHC complexes were produced by UV-ligand exchange, where a UV-sensitive peptide is cleaved upon UV-irradiation, and exchanged with the peptide of interest as analyzed. Only peptide candidates that can effectively bind and stabilize the peptide-receptive MHC molecules prevent dissociation of the MHC complexes. To determine the yield of the exchange reaction, an ELISA was performed based on the detection of the light chain (β2 m) of stabilized MHC complexes. The assay was performed as generally described in Rodenko et al. (Rodenko et al., 2006).
96 well MAXISorp plates (NUNC) were coated over night with 2 ug/ml streptavidin in PBS at room temperature, washed 4× and blocked for 1 h at 37° C. in 2% BSA containing blocking buffer. Refolded HLA-A*02:01/MLA-001 monomers served as standards, covering the range of 15-500 ng/ml. Peptide-MHC monomers of the UV-exchange reaction were diluted 100 fold in blocking buffer. Samples were incubated for 1 h at 37° C., washed four times, incubated with 2 ug/ml HRP conjugated anti-β2 m for 1 h at 37° C., washed again and detected with TMB solution that is stopped with […]. Absorption was measured at 450 nm. Candidate peptides that show a high exchange yield (preferably higher than 50%, most preferred higher than 75%) are generally preferred for a generation and production of antibodies or fragments thereof, and/or T cell receptors or fragments thereof, as they show sufficient avidity to the MHC molecules and prevent dissociation of the MHC complexes.
(In general: In an ELISA, binding on a coated surface is turned into a signal by an enzyme label.)

Take “195 (VIIQNLPAL; listed as Homo sapiens) [compound 195]”: the “Peptide exchange (MHC class I binding score, peptide exchange yield)” value (“Peptide exchange” for short) was “+++ (≥50% = +++)”.
With “30 (IITEVITRL; listed as Homo sapiens) [compound 30]”, the “Peptide exchange” value is listed as “+++ (≥50% = +++)”.
On to “58 (HLLGEGAFAQV; listed as Homo sapiens) [compound 58]”, for which the “Peptide exchange” value is recorded as “+++ (≥50% = +++)”.
For the substance “57 (TLYPGRFDYV; listed as Homo sapiens) [compound 57]”, the “Peptide exchange” value was “++ (≥20% = ++)”.
Then “42 (KQMSISTGL; listed as Homo sapiens) [compound 42]”, with “++ (≥20% = ++)”; and “74 (GLAFLPASV; listed as Homo sapiens) [compound 74]”, with “++ (≥20% = ++)”.
Take “276 (RMPTVLQCV; listed as Homo sapiens) [compound 276]”: the “Peptide exchange” value was “+++ (≥50% = +++)”.
For “11 (LLDPKTIFL; listed as Homo sapiens) [compound 11]”, the “Peptide exchange” value is on record as “+++ (≥50% = +++)”.
As for “193 (ALFHMNILL; listed as Homo sapiens) [compound 193]”, the “Peptide exchange” value is on record as “+++ (≥50% = +++)”.
Take “90 (AILNVDEKNQV; listed as Homo sapiens) [compound 90]”: the “Peptide exchange” value is reported as “++ (≥20% = ++)”.
In the case of “214 (ALFETLIQL; listed as Homo sapiens) [compound 214]”, the “Peptide exchange” value is “+++ (≥50% = +++)”.
As for “67 (FLIENLLAA; listed as Homo sapiens) [compound 67]”, the “Peptide exchange” value was “+++ (≥50% = +++)”.
With “160 (TLQEWLTEV; listed as Homo sapiens) [compound 160]”, the “Peptide exchange” value is reported as “+++ (≥50% = +++)”.
For “82 (ILAEEPIYIRV; listed as Homo sapiens) [compound 82]”, the “Peptide exchange” value is given as “+++ (≥50% = +++)”.
Regarding “128 (SILTNISEV; listed as Homo sapiens) [compound 128]”, the “Peptide exchange” value is “++ (≥20% = ++)”.
Then “175 (SLLDLVQSL; listed as Homo sapiens) [compound 175]”, with “+++ (≥50% = +++)”; and “228 (SLLELDGINLRL; listed as Homo sapiens) [compound 228]”, with “+++ (≥50% = +++)”.
Then “264 (TLHDQVHLL; listed as Homo sapiens) [compound 264]”, with “++ (≥20% = ++)”; and “261 (GLAALAVHL; listed as Homo sapiens) [compound 261]”, with “+++ (≥50% = +++)”.
“107 (RVLPGQAVTGV; listed as Homo sapiens) [compound 107]”: the “Peptide exchange” value is “++ (≥20% = ++)”.
Regarding “132 (ALLNNVIEV; listed as Homo sapiens) [compound 132]”, the “Peptide exchange” value is recorded as “+++ (≥50% = +++)”.
Take “153 (KLVELEHTL; listed as Homo sapiens) [compound 153]”: the “Peptide exchange” value is given as “+++ (≥50% = +++)”.
Take “238 (HLQEKLQSL; listed as Homo sapiens) [compound 238]”: the “Peptide exchange” value is reported as “++ (≥20% = ++)”.
Regarding “161 (NLLDENVCL; listed as Homo sapiens) [compound 161]”, the “Peptide exchange” value is given as “++++ (≥75% = ++++)”.
For “211 (LLTTVLINA; listed as Homo sapiens) [compound 211]”, the “Peptide exchange” value is “+++ (≥50% = +++)”.
Then “89 (SLAETIFIV; listed as Homo sapiens) [compound 89]”, with “+++ (≥50% = +++)”.
“203 (FLFVDPELV; listed as Homo sapiens) [compound 203]”: the “Peptide exchange” value is on record as “++ (≥20% = ++)”.
As for “253 (KLLAVIHEL; listed as Homo sapiens) [compound 253]”, the “Peptide exchange” value is reported as “+++ (≥50% = +++)”.
On to “184 (ALDSTIAHL; listed as Homo sapiens) [compound 184]”, for which the “Peptide exchange” value is on record as “++ (≥20% = ++)”.
As to “250 (LMQDSRLYL; listed as Homo sapiens) [compound 250]”, the “Peptide exchange” value was “+++ (≥50% = +++)”.
As for “267 (YLLDMPLWYL; listed as Homo sapiens) [compound 267]”, the “Peptide exchange” value is recorded as “+++ (≥50% = +++)”.
Then “272 (FVMEGEPPKL; listed as Homo sapiens) [compound 272]”, with “++ (≥20% = ++)”; and “64 (SLYAGSNNQV; listed as Homo sapiens) [compound 64]”, with “++ (≥20% = ++)”.
For “229 (YLYELEHAL; listed as Homo sapiens) [compound 229]”, the “Peptide exchange” value is “++ (≥20% = ++)”.
“190 (SLSTELFKV; listed as Homo sapiens) [compound 190]”: the “Peptide exchange” value was “+++ (≥50% = +++)”.
Then “28 (IKVTDPQLLEL; listed as Homo sapiens) [compound 28]”, with “++ (≥20% = ++)”; and “96 (ALDTTRHEL; listed as Homo sapiens) [compound 96]”, with “++ (≥20% = ++)”.
“84 (FLLEREQLL; listed as Homo sapiens) [compound 84]”: the “Peptide exchange” value is on record as “++++ (≥75% = ++++)”.
Then “239 (VIIKGLEEITV; listed as Homo sapiens) [compound 239]”, with “+++ (≥50% = +++)”.
“63 (KLLPMVIQL; listed as Homo sapiens) [compound 63]”: the “Peptide exchange” value is given as “+++ (≥50% = +++)”.
For the substance “52 (TIGIPFPNV; listed as Homo sapiens) [compound 52]”, the “Peptide exchange” value is listed as “++ (≥20% = ++)”.
Then “1 (KLQEKIQEL; listed as Homo sapiens) [compound 1]”, with “++++ (≥75% = ++++)”; and “47 (GLNGFNVLL; listed as Homo sapiens) [compound 47]”, with “+++ (≥50% = +++)”.
Consider “41 (IVTEIISEI; listed as Homo sapiens) [compound 41]”, for which the “Peptide exchange” value was “+++ (≥50% = +++)”.
Turning to “169 (ALADLSVAV; listed as Homo sapiens) [compound 169]”, the “Peptide exchange” value is listed as “+++ (≥50% = +++)”.
For “12 (RLLDPKTIFL; listed as Homo sapiens) [compound 12]”, the “Peptide exchange” value is listed as “+++ (≥50% = +++)”.
Then “65 (SLSEKSPEV; listed as Homo sapiens) [compound 65]”, with “++ (≥20% = ++)”.
